Tests used:
[1] = biological target: UBXD1 UBX extension (269–330), for fluorescence anisotropy (human) (UniProt Q9BZV1); experiment: fluorescence polarisation; fluorescence anisotropy; Atto594-labeled UBXD1 proteins, p97 constructs titrated; 50 mM NaKPi pH 7.5, 25 °C; all fitted with stoichiometry n = 1
ubiquitin (wild type) = ubiquitin (wild type) (UniProt P0CG48); experiment: NMR titration; 1H-15N-HSQC titrations of ubiquitin with UBXD1, UBXD1-eUBX R305A, PUB or the UBX extension; 50 mM sodium potassium phosphate pH 7.5, 25 °C

Substance	Kd [1] [µM]	Kd (ubiquitin (wild type)) [µM]
p97-wt (1–806) (from UniProt P55072 1-806) (enzyme)	191	–
UBXD1-eUBX R305A (from UniProt Q9BZV1 1-441) (domain or fragment)	–	155

Reference: PMC10241913
